Assay results from the nanobody polyreactivity screen of Harvey et al. (2022).

Experiment: yeast display, Sf9 membrane polyspecificity reagent, FACS + sequencing; frameworks hold sequencing errors
Method in brief: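 A nanobody's polyreactivity label depends on the gate it was sorted from. Yeast display cells were stained with 10% biotinylated, detergent-solubilized Sf9 membrane reagent for 1 hour at 4 °C, enriched on streptavidin microbeads and sorted by FACS. The low and high (top ~1%) gates were set on anti-HA fluorescence for expression and streptavidin fluorescence for reagent binding.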

QVQLVESGGGLVQAGCSLRLSCAASGITFAWYAMGWYRQAPGKERELVAAIDDRGGSTYYADSVKGRFTISRDNAKNTVYLQMNSLKPEDTAVYYCNADTPSYEPYRLDYWGQGTQVTVSS
polyreactivity (PSR sort gate): low polyreactivity

QVQLVESGGGFVQAGGSLRLSCAPSGRIFLRNDMGWYRQAPGKEREWVAGISWRGGRTYYADAVKGRFTISRDNAKNTVYLQMNSLKPEDTAVYYCNADKDETSGGKYDSWGQGTQVTVSS
polyreactivity (PSR sort gate): low polyreactivity

QVQLVDSGGCLVQAGGSLRLSCASSGRIIAHYAMGWYRQSPGKESELVAAISTRGGSTYYADSVKGRFTISRDNEKNTVYLQMNSLKPEDTAVYYCAAKSNNIATMDYWGQGTQVTVSS
polyreactivity (PSR sort gate): low polyreactivity

QVQLVESGGGLVQAGGSLRLSCAASGFTFINYAMGWYRQAPGKERELVAAISRRGGSTYYADSVKGRFTISRDNAKNTVYLQMNSLKPEDTAVYYCAARGYSYNYDYWGQGTQVTVSS
polyreactivity (PSR sort gate): high polyreactivity

QVQLVESGGGLVQAGGSLRLSCAASGRTFGLNAMGWYRQATGKERELVAAITSGGSTYYADSVKGRFTISRDNAKKTVYLQMNSLKPEDTAVYYCAVTYNGDSSWPGDYWGQGTQVTVSS
polyreactivity (PSR sort gate): low polyreactivity

QFQLVESGGGLVQAVGSLRLSCAASGITFYTYAMGWYRHAPGKESDFVSAITRSGGSTYYADSVKGRFTFSRDNAKNTVYLQMIILKPEDTAVYYCAVDIYFWSYGWWGPYDYWGQGTQVTVSS
polyreactivity (PSR sort gate): low polyreactivity

QVQLVESGGVLVQAGGSLRLSCAASGSTFSYYAMGWYRQAPGKERELVAAIDSSGGRTYYADSVKGRFTISRDNAKNTVYLHMNSLKPEDTAVYYCAADASYTEGMDYWGQGTQVTVSS
polyreactivity (PSR sort gate): high polyreactivity

QVQLVESGGGLVQAGGSLRLSCAASGRIFYFYTMGWYRQAPGKEREFVAAISDSGDGTYYADSVKGRFTISRDNAKNTVYLQMNSLKPEDTAVYYCAADGTLFSEYYWFFGYHDYWGQGTQVTVSS
polyreactivity (PSR sort gate): high polyreactivity

QVQLVESGGGLVQAGGSLRLSCAATGRNFVYNAMGWYRQAPGKERELVAAITWGGGSTYYADSVKGRFTISRDYAKNTVYLQMNSLKPEDTAVYYCAARGGSYPQDHSPYYEYDYWGQGTQVTVSS
polyreactivity (PSR sort gate): low polyreactivity

QVQLQESGGGLVQASGSLRLSCAASGNIFPDYFMGWYRLAPGKEREFVANITGGSTTNYADSVKGRFTISRDNAKNTLYLQMNSLKPEDTAVYYCAVNFGTVVLYLYWGQGTQVTVSI
polyreactivity (PSR sort gate): high polyreactivity

QVQLEESGGGLVQAGGSLRLSCAASGRTFGTYVMGWNRQATGKHRELVAAISRSGGGTYYADSVKGRFTISRDNEKNTVYLQMNSLKPEDTAVYYCADRRVVYRYYWYSAYDYWGQGTQVTVSS
polyreactivity (PSR sort gate): high polyreactivity

QVQLVDSGGGLVQAGGSLRLSCAASGRTFKRYDMGWYRQAPRKEREFVAAISWTGGSTYYADTVKGRFTISRDNEKNTVYLQMNSLKPEDTAVYYCARKFLWKGFDYWGQGTQVTVSS
polyreactivity (PSR sort gate): low polyreactivity

QVQIVESGGGLVQAGGSLRLSCAASGSTFGKYAMGWYRQAPGKERELVAAITRRTGSTYYADSVKGRFTISRDNAKNTVYLQMNSLKPEDTAVYYCAARLPQYRYDYWGQGTQVTVSS
polyreactivity (PSR sort gate): high polyreactivity

QVQLVESGGGLVQAGGSLRLSCAASGRIFWEYAMGWYRQAPGKERELVAAITWRVGSTYYADSVKGRFTISRDNAKNTVYLQMNSLKPEDTAVYYCVARSQSIRYTYIRSYYWGQGTQVTVSS
polyreactivity (PSR sort gate): low polyreactivity

QVQLVESGGGLVQAGGSLRLSCAASGSTFSRYAMGWYRQAPGKERELVAAITSNGGRTYYADSVKGRFTISRDNAKNTVYLQMNSLKPEDTAVYYCAAVYYTEYYWGQGTQVTVSS
polyreactivity (PSR sort gate): high polyreactivity

QVQLVESGGGLVQAGGSLRLSCAASGSIFGTNTMGWYRQAPGKERELVAAISGGGSTYYADSVKGRFTISRDNAKNTVYLQMNSLKPEDTAVYYCAVRSLRVDKYGYWGQGTQVTVSS
polyreactivity (PSR sort gate): high polyreactivity

QVQLVESGGGLVQAGGSLRLICAASGSIFGSNAMGWYRQAPGKEREFVAVITWRVGDTYYADSVKGRFTISRDNAKNTVYLQMKSLKPEDTAVYYCNVDWKVYGAPDYRIAWKYDYWGQGTQVTVSS
polyreactivity (PSR sort gate): low polyreactivity
